The text below walks through data of publication PMC7894528, “Metal Ion Promiscuity and Structure of 2,3‐Dihydroxybenzoic Acid Decarboxylase of Aspergillus oryzae” (Chembiochem, 2020).

Substrate in the data set: O=C(O)c1cccc(O)c1O
In words: steady-state decarboxylation kinetics. The data set is classed as biochemical, Aspergillus oryzae. Conditions: Mg2+-loaded enzyme; decarboxylation direction.

B1: 2,3-DHBD_Ao (Aspergillus oryzae RIB40) (protein)
chain: MLGKIALEEAFALPRFEEKTRWWASLFSTDAETHVKEITDINKIRIEHADKHGVGYQILSYTAPGVQDIWDPVEAQALAVEINDYIAEQVRVNPDRFGAFATLSMHNPKEAADELRRCVEKYGFKGALVNDTQRAGPDGDDMIFYDNADWDIFWQTCTELDVPFYMHPRNPTGTIYEKLWADRKWLVGPPLSFAHGVSLHVLGMVTNGVFDRHPKLQIIMGHLGEHVPFDMWRINHWFEDRKKLLGLAETCKKTIRDYFAENIWITTSGHFSTTTLNFCMAEVGSDRILFSIDYPFETFSDACEWFDNAELNGTDRLKIGRENAKKLFKLDSYKDSSA
notes: recombinant, purified by size exclusion chromatography
With B1, the Km is listed as 208 µM and the kcat was determined as 15 s–1.
